Publication doi:10.1101/2023.07.03.547593 (bioRxiv, 2023)
Residue numbers refer to the chain shown, from its start. Numbers in names are those of the source.

B1: nuclease-deactivated AsCas12f1 variant (D225A) (enzyme)
chain: MIKVYRYEIVKPLDLDWKEFGTILRQLQQETRFALNKATQLAWEWMGFSSDYKDNHGEYPKSKDILGYTNVHGYAYHTIKTKAYRLNSGNLSQTIKRATDRFKAYQKEILRGDMSIPSYKRDIPLDLIKENISVNRMNHGDYIASLSLLSNPAKQEMNVKRKISVIIIVRGAGKTIMDRILSGEYQVSASQIIHDDRKNKWYLNISYDFEPQTRVLDLNKIMGIALGVAVAVYMAFQHTPARYKLEGGEIENFRRQVESRRISMLRQGKYAGGARGGHGRDKRIKPIEQLRDKIANFRDTTNHRYSRYIVDMAIKEGCGTIQMEDLTNIRDIGSRFLQNWTYYDLQQKIIYKAEEAGIKVIKIDPQYTSQRCSECGNIDSGNRIGQAIFKCRACGYEANADYNAARNIAIPNIDKIIAESIK
B2: Acidibacillus sulfuroxidans Cas12f1, wild type (enzyme)
chain: B1 chain with A225D

Assays:
cryo-EM structure = target: the molecule itself; assay: cryo-EM structure
SEC = target: the molecule itself; assay: SEC

| Protein | binding result (cryo-EM structure) | stoichiometry N (SEC) |
| --- | --- | --- |
| B1 | binds |  |
| B2 |  | 2 |
